Experimental data taken from the nanobody polyreactivity screen of Harvey et al. (2022).

Assay: yeast display, Sf9 membrane polyspecificity reagent, FACS + sequencing; frameworks hold sequencing errors
Summary of the method: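 After 36–48 hours of galactose induction, yeast (Saccharomyces cerevisiae BJ5465) displaying a synthetic nanobody library were stained at 4 °C for 1 hour with 10% biotinylated, detergent-solubilized Sf9 membrane reagent. Streptavidin microbeads enriched the stained cells before FACS sorting into low and high (top ~1%) gates on anti-HA and streptavidin fluorescence. Each clone's polyreactivity label reflects its gate of origin.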

Row | Sequence | polyreactivity (PSR sort gate)
1 | QVQLQESGGGMVQAGGSLRLSCAASGYISWADYMGWYRQAPGKERELVAGIGYGSTTYYADSVKGRFTISRDNAKNTAYLQMNSLKPQYTAVYYCAVGWYRDTAYKYWGQGTQVTVSS | low polyreactivity
2 | QVQLVESGGGVVQAGGSLRLSCAASGSIFFLYAMGWSRQATGKEREFVAAITGTADSTYYADSVKGRFTISRDDAKNTVYLQMNSLKPEDTAVYYCATDYWSSVKLDDYWGQGTQVTVSS | low polyreactivity
3 | QVQLVESGGGLVQAGGSLRLSCAASGFIFLDYAMGWYRQAPGKERELVAAISSRGARTYYADSVKGRFTISRDNAKNTVYVQMNSLKPEDTAVYYCAARGPLDRYGYWGQGTQVTVSS | high polyreactivity
4 | QVQLVESGGGLVQAGGSLRLSCAASGRIFRYYAMGWYRQAPGKERELVGSITYSGGRTNYADSVKGRFTISRDNAKNTVYLQMNSLKPEDTAVYYCNAAYVYYYPHYRYAPTAVDYDYWGQGTQVTVSS | low polyreactivity
5 | QVQLVESGGGLVQAGGSLRLSCAASGRIFYRYVMGWYRQAPGKERELVAAITSSGGSTYYADSVKGRFTISRDNAKNTVYLQMNSLKPEDTAVYYCAADRYTRYRYNYWGQGTQVTVSS | high polyreactivity
6 | QVQLVESGGGLVQAGGSLRLSCAASGSIFKLNAMGWYRQAPGKERELVAAISRGGRTYYADSVKGRFTISRDNAKNTVYLQMNSLKPEDTAVYYCAADASSQIWYYPRDDYWGQGTLVTVSS | low polyreactivity
7 | QVQLVESGGGLVQAGGSLRLSCAASGLTFVFYAMGWYRQAPGKERELVAAISWSTGRTYYADSVKGRFTISRDNAKNTVYLQMNSLKPEGTAVYYCAASYLGRKYDYWGQGTQVTVSS | high polyreactivity
8 | QVQLVESGGGVVQAGGSLRLRCAASGRTFGQNVMGWYRQAPGKERELVAAISWSGARTYYADSVKGRFTISRDNVKNTVYLQMNSLNPEDTAVYYCNAPPYAYYGMYYWGQGTQVTVSS | high polyreactivity
9 | QVQLVESGGGLVQAGGSLRLSCAASGLNCKTYTMGWDRQAPGKEREFVAAITTSGGSTYYADSVKGRFTISRDNAKNTVYLQMNSLKPEDTAVYYCDAVWCKSFQGSSYGMNYWGQGTLVTVSS | high polyreactivity
10 | QVQLLESGGGLVQAGGSLRLSCAASGRIFLRYVMGWYRQAPGKERELVAAIRSNGGSTYADSVKGRFTSSRDNAKNTVYLHMNSLKPEDTAVYYCAARYVITKGSFVVGYGYWGQGTQVTVSS | high polyreactivity
11 | QVQLVESGGGLVQAGGSLRLICAASGRIIPSYSMGWYRQAPAKEREFVAVIRSSVDGTYYADSVKGRFTISRDYAKNTVYLHMNSLNPDDTSVYYFSADSYPFFIRNLYPVLEGEYGHWGQGTQVNVSS | low polyreactivity
12 | QVQLVESGGGLVQAGGSLRLSCAASGIIFYGYAMGWYRQAPGKERELVATIRDSGAGTYYADSVKGRFTISRDNAKNTVYLQMNSLKPEDTAVYYCAATGWIRYDSWGQGTQVTVSS | low polyreactivity
13 | QVQLQESGDGLVQAVGSLRLSCAASGYISGYYYMGWYRQAPGKERELVAGIDAFGSSTNYADCVKGRFTISRDNAKTTVYLPPNSPKPEDTAVYYCAAEYDDWDYHWYWGQGTQVTVSS | low polyreactivity
14 | QVQLVESGGGLVQAGGSLRLSCAASGRIFRGYAMGWYRQAPGKERELVAAITTNGGSTYADSVKGRFTISRDNAKNTVYLQMNSLKPEDTAVYYCAARRVGWARGSGNYDYWGQGTQVTVSS | low polyreactivity
15 | QVQLVESGGGLVQAGGRLRLSCAASGIISRFYAMGWYRQAPGKERELVARISGSGGSTYYADSVKGRFTISRDNAKTTVYLQMNSLKPEDTAVYYFNAKSYRYFGVRRFNYWGQGTQVTVSS | high polyreactivity
16 | QVQLVDSGGGLVQAGGSLRLSCAASGYTFEIYAIRWYRQAPGKERELVAAITRSGDSTYYADSVKGRFTISRDNSKNTVYLQMNSLKPEDTAVYDCNADYPGQYDSWGQGTQVTVSS | low polyreactivity
17 | QVQLVESGGGLVQAGGILRLSSAASGSTFTLNAMGWYRQEPGKERELVADITSGGGGTYYADSVKGRFTISRDNAKNTVYLQMNSLKPEDTAVYYCAADDFHSLLGYWYGLFDFWGQGTQVTVSS | low polyreactivity
18 | QVQLVESGGGLVQAGGSLRLICAASGSTFYPYDMGWYRQSPGKEWELVATISSGVSTNYADSVKGRFTISRDNAKNTVYLQMNSLKPEDTAVYYCAVDYFIGDDDYWGQGTLVTVSS | low polyreactivity
19 | QVQLVESGGGLVQAGGSLRLSCAASGSTFRLYAMGWYRQAPGKERELVAVISRSGGRTYADSVKGRFTISRDNAKNSVYFQMNSLKPEDTAVYYCAKARHKSATYTHDSWGQGTQVTVSS | high polyreactivity
20 | QVQLVESGGGLVQAGGSLRLSCAASGSIFNYNAMGWYRHAPGKERELFAAITYHGGSTYYADSVKGRFTISRDNAKYTVYLQMNSLKPEDTAVYYCNALRGYRPGWFDYWGQGTQVTVSS | high polyreactivity
21 | QVQLVESGGGLVQAGGSLRLSCAASGSIFERYTMGWYRQAPGKERELVAAISRSGGRTYYADSVKGRFTISRDNAKNTVYLQMNSLKPEDTAVYYCARTRVASKGYDYWGQGTQVTVSS | high polyreactivity
22 | QVQLVESGGGLVQAGGSLRLSCAASGSIFIYAMGWYRQAPGKERELVATISWSGTSTYSDSVKGRFTISRDNAKNTVYLQMNSLKPEDTAVYYCNKLKRTYYSSGYPHDYWGQGTQVTVSS | low polyreactivity

Row | Sequence | polyreactivity (PSR sort gate)
23 | QVQLVESGGGLVQAGGSLRLSCAASGSIFRRYAMGWYRQAPGKERELVAAITNGGGSTYYADSVKGRFTISRDNAKNTVYLQMNSLKPEDSAVYYCARRLASNYGAYDYWGQGTQVTVSS | low polyreactivity
24 | QVQLQESGGGMVQAGVSLRLSCAASGTISNAPHMGWYRQAPAKERELVAGITIGGTTYYADSVKGRFTISRDNAKNTVYLQMNSLSPGVTAVYDCAAHSEQYTPFYYWGQGTQVTVSS | low polyreactivity
25 | QVQLVESGGGLVQAGGSLRLSCAASGRIFPKYAMGWYRQAPGKERELVATINSGTRTYADSVKGRFTISRDNAKNTVYLEMNSLKPEDTAVYYCARRGYYYDYWGQGTQVTVSS | high polyreactivity
26 | QVQLVESGGGIVQAGGSLRLSCAASGRTFMLYAMGWYRQAPGKERELVASIDRNGGRTYYADSVKGRFTISRDNAKNTVYLQMNSLIPEDTAVYYCAARWYDYGYWGQGTQVTGSS | high polyreactivity
27 | QVQLVESGGGLVQAGGSLRLSCAASGINFYSYAMGWYRQAPAKERELVAAITLTVGTTYYADSVKGRFTISRDIEKNTVSLKMNSVKREDTACYYCAAQYWWWSRFEYESWGQGTQVTVSS | low polyreactivity
28 | QVQLVESGGGLVQAGGSLRLSCAASGFTFSRYAMGWYRQAPGKERELVAAITSGGSTYYADSVKGRFTISRDNAMNTVYLQMNSLKPEDTAVYYCAVGVAEFFGYGYWGQGTQVTVSS | high polyreactivity
29 | QVQLVESGGGLVQAGGSLRLSCAASGSNFYVYAMGWYRQAPGKERELVAAIRWSGGSTYYADSVKGRFTISRDNANYPVYLQMNSLKPEDTADYYCAADAHPDSVWYGEYDYWGQGTQLTVSS | low polyreactivity
30 | QVQLVESGGGLVLAGGSLSLSCAASGSTFIWNAMGWYRQAPGKERELVAAIRRGSSTNYADSVKGRFTISRDNAKNTVYLQMNSLKPEDTAVYYCAKKQVTTDVSSETFVLEMDYWGQGTQVTVSS | low polyreactivity
31 | QVQLVESGGRLVQAGGSLRLSCAASGRIFRDNAMGWYRQAPGKEMELVATIRSGTNTNYADSVKGRFTISRDYAKNTVYLQMNSLKPEDTAVYYCAADLWGSHYTEYRRYPYEYDYWGQGTQVTLSS | low polyreactivity
32 | QVHLVESGGGLVQAGGSLRLSCAASGSIFPYNVMGWYTQAPGTERELVAAISTRGGRTYYADSVKGRFTISRDNANNTVYLELNSLKPEDTAVYDCATAGGPYSDYGYYWGQGTQVTVSS | high polyreactivity
33 | QVQLVESGGGLVQAGGSLRLSCAASGSTFAGYVMGFYIQATGKERELVAAISGSGGSTYYADSVKGRFTISRDNAKKTVYLQMNSLKPEDTAVYYCAKRAIIKYRGGYGYWGQGTQVTVSS | high polyreactivity
34 | QVQLVESGGGLVQAGGSLRLSCAASGSSFYSNAMGWYRQAPGKERELVAAISSSGGSTYYADSVKGRFTISRDNAKNTVYLQMNSLKPEDTAVYYCAAYSYYPPYDYWGQGTQVTVSS | high polyreactivity
35 | QVQLVESGGGLVQAGGSLRLSCAASGITLAWYAMGWYRQAPGKERELVAAINSGGSTYYADSVKGRFTISRDNAKNTVYLQMNSLKPEDTAVYYCKTDDDSSSTGYYSWGQGTQVTVSS | low polyreactivity
36 | QVQLVESGGGLVQAGGSLRLSCVSSGFTFYFYAMGWYRQPPGKEREFVATITSNGGSTYYADSVKGRFTISRDNAKNTDYLQINSLKPEDTAVYYCNAGRYVRWWWYSPDDYWGQGTQVTVSS | high polyreactivity
37 | QVQLVESGGGLVQAGCSLRLSCAASGRIFVAITMGRYRQAPGKERELVAAITRGTNTYYADSVKGRFTISRDNAKNTVDLQMNSLKPEDSAVYYCAARLPYNAIGYYYWGHGTQVTVSS | low polyreactivity
38 | QVQLVESGGGLVQAGGRLRLSCAASGRIFYTNYMGWYRHAPGKERELVAAIRSVSTYYADSVKGRFTISRDNAKNTVYLHMNSLNPEDTAVYYCNALRTNRYDYWGQGTQVTVSS | high polyreactivity
39 | QVQLVESGGGLVQAGGSLRLSCAASGRIFTRNTMGWYRQAPGKERELVAAISSGASTYYADSVKGRFTISRDTAKNTVYLQMNSLKPEDTAVYYCATRGYARYWGLGTQVTVSS | low polyreactivity
40 | QVQLVESGGGLVQAGGSLRLSCAASGFTLSGNAMGWYRQAPGKERELVAAINGSGGSTYYADSVKGRFTISRDNAKNTVYLQMNSLKPEDTAVYYCAAAGSYGQAYSIFTLDSWGPGTQVTVSS | low polyreactivity
41 | QVQLVESGGGLVQAGGSLRLSCAASGSTFSPYVMGWYRQAPGKERELVAAITSGGITNYADSVKGRFTISRDNAKNTVYLQMNSLKPEDTAVYYCNVDRYIRDSWGDYWGQGTQVTVSS | high polyreactivity
42 | QVQLVESGGGLVQAGGSLRLSCAASGRTFGGNAMGWYRQAPGKESELVAAISKSGGRTYYADSVKGRFTISRDNAKNTVYLQMNSLKPEDTAVYYCNKVLSVSQAGGFDYWGQGTQVTVSS | high polyreactivity
43 | QVQLVESGGGLVQSGGTLRLSWAASGFSFAGNAMGWYRLAPGKERELVAVISKRGGPTYYADSVKGRFTFSRDNAKNTVDLQMNSLKPEDTAVYYCAADSGGPGYAMDYWGQGTEVTVSS | high polyreactivity
